One molecule from patent US7026125, “Heterodimers of retinoid X receptors (RXRS) and other steroid hormone receptors” (Ligand Pharmaceuticals) can be followed below.

For series [1], the target named is Flag-RARγ/RXRα heterodimer (UniProt P13631;P19793 P13631:1-454,P19793:1-462). As to the kind of experiment: EMSA; inhibited by anti-Flag. Conditions: tags: N-terminal Flag on RARγ; label: 32P. How it is done:
(§1) In vitro translated receptor protein (1 to 5 μl depending on the translation efficiency) was incubated with the ^32P-labeled oligonucleotides in a 20-μl reaction mixture containing 10 mM hepes buffer, pH 7.9, 50 mM KCl, 1 mM DTT, 2.5 mM MgCl, 10% glycerol, and 1 μg of poly(dI-dC) at 25° C. for 20 minutes. In general, relative low receptor concentration was used to obtain the clear effect of heterodimer formation. The reaction mixture was then loaded on a 5% nondenaturing ployacrylamide gel containing 0.5×TBE (1×TBE=0.089 M Tris-borate, 0.089 M boric acid, and 0.002 M EDTA). To analyze the effect of RXRα or the nuclear proteins on receptor DNA binding activity, RXRα or the cell extracts were preincubated with receptor protein at room temperature for 10 minutes before performing the DNA binding assay. When antibody was used, 1 μl of the antiserum was incubated with the specific translation products at room temperature for 45 minutes before performing the experiments described above.
In general terms: In EMSA bound probe runs differently from free probe, usually more slowly.

The target of series [2] is Flag-RXRα/TRα heterodimer (UniProt P19793;P10827-2 P19793:1-462,P10827-2:1-410). As to the kind of experiment: EMSA; strongly reduced by anti-Flag. Conditions: tags: N-terminal Flag on RXRα; label: 32P. How it is done:
As a control, receptor mixtures were also incubated with preimmune serum (NI).
as §1

The target of a further series is T1, RARα (Homo sapiens, UniProt P10276 P10276:1-462).
T1 sequence: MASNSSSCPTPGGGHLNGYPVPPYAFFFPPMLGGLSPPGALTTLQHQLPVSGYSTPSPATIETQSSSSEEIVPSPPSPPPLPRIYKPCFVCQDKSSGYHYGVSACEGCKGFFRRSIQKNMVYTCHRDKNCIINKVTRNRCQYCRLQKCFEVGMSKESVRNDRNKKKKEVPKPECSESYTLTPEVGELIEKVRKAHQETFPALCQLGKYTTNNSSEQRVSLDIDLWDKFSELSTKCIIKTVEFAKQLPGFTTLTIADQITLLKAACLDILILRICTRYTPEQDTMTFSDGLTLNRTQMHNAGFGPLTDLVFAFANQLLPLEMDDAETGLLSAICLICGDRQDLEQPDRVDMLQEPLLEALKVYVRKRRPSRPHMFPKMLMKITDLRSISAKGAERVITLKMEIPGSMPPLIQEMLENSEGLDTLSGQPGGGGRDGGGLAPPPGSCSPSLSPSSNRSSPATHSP
As to the kind of experiment: EMSA; no detectable complex under conditions used. Conditions: label: 32P. On the procedure: (§2) (a) In vitro synthesized TRα, TRβ, RARα, RARβ, RARγ and TRα2 receptor proteins were preincubated either with (+) or without (−) equal amount of in vitro synthesized RXRα protein at room temperature for 10 minutes. Following this preincubation, the reaction mixtures were incubated with ^32p-labelled palindromic TRE (for 1 sequence see FIG. 2a) and analyzed by gel retardation assay as described in Experimental Procedures. […] As a control, equal amounts of TRα and RARα proteins were also mixed and incubated with labelled TRE.
as §1

Another series has as its target T2, RARβ (UniProt P10826-2 P10826-2:1-448).
T2 sequence: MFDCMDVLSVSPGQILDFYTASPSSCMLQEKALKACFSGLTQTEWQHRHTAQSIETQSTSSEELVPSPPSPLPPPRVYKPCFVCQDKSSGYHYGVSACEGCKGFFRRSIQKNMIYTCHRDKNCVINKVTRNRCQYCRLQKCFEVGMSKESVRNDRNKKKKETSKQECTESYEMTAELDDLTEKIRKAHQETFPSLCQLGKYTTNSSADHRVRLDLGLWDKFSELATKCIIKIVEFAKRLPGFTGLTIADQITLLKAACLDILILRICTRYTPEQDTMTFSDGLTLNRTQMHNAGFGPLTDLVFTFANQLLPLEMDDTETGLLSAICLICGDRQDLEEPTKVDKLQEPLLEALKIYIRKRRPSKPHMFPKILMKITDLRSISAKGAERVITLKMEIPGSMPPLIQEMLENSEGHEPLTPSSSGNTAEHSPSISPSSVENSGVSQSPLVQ
The series is described as follows: EMSA; no detectable complex under conditions used. Conditions: label: 32P. On the procedure:
as §2, §1

The target of series [3] is Flag-TRα/RXRα heterodimer (UniProt P10827-2;P19793 P10827-2:1-410,P19793:1-462). The series is described as follows: EMSA; inhibited by anti-Flag. Conditions: tags: N-terminal Flag on TRα; label: 32P. On the procedure:
(b) Effect of anti-Flag-TRα antibody on binding of the slow migrating complex. In vitro synthesized Flag-TRα (F-TRα) protein was incubated with in vitro synthesized RXRα protein in the presence or absence of anti-Flag antibody. The effect of antibody on DNA binding of the slow migrating complex was analyzed as described in FIG. 2a. For control, the receptor mixture was also incubated with preimmune serum (NI). The effect of anti-Flag antibody on DNA binding of Flag-RXRα, RXRα, Flag-TRα, and TRα was also analyzed. For comparison, anti-Flag antibody/Flag-RXRα-TRα interaction was run on the same gel (lanes 7–10).
In vitro translated receptor protein (1 to 5 μl depending on the translation efficiency) was incubated with the ^32P-labeled oligonucleotides in a 20-μl reaction mixture containing 10 mM hepes buffer, pH 7.9, 50 mM KCl, 1 mM DTT, 2.5 mM MgCl, 10% glycerol, and 1 μg of poly(dI-dC) at 25° C. for 20 minutes. In general, relative low receptor concentration was used to obtain the clear effect of heterodimer formation. The reaction mixture was then loaded on a 5% nondenaturing ployacrylamide gel containing 0.5×TBE (1×TBE=0.089 M Tris-borate, 0.089 M boric acid, and 0.002 M EDTA). […]

Sequence of Flag-RARγ/RXRα heterodimer (P13631 whole entry, chain 1 of 2): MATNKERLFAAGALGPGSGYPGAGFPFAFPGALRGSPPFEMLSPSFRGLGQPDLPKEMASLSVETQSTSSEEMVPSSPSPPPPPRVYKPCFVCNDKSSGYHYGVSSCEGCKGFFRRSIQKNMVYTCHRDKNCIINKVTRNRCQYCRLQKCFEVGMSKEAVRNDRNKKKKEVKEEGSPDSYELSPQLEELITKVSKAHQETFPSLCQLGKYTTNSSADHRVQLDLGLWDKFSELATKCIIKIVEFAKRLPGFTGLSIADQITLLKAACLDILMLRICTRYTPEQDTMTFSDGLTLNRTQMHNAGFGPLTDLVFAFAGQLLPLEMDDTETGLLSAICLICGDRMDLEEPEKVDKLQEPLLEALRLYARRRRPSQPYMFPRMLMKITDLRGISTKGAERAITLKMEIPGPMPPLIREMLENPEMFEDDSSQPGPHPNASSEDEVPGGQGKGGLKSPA
Sequence of Flag-RARγ/RXRα heterodimer (P19793 whole entry, chain 2 of 2): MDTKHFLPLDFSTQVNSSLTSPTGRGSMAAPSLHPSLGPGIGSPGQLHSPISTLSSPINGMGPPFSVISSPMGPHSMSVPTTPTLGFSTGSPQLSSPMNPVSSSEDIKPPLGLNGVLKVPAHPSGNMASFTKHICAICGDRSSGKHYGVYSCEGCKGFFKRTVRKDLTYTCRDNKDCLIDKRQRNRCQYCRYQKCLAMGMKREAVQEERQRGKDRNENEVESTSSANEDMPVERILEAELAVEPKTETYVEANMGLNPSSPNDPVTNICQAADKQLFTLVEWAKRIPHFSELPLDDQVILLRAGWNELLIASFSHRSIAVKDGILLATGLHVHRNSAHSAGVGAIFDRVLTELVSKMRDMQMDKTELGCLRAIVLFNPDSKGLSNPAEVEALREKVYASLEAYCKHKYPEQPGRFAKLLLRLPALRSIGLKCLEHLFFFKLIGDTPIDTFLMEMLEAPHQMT
Sequence of Flag-RXRα/TRα heterodimer (P19793 whole entry, one chain of several): as the sequence (P19793 whole entry, chain 2 of 2) above
Sequence of Flag-TRα/RXRα heterodimer (P19793 whole entry, one chain of several): as the sequence (P19793 whole entry, chain 2 of 2) above

B1: palindromic TRE (dsDNA)
DNA 1: GATCTCAGGTCATGACCTGAGATC
DNA 2: GATCTCAGGTCATGACCTGAGATC
Regarding B1, the binding result in series [1] is “binds”; in series [2], “binds”; with RARα, “no binding”; in the series with RARβ, “no binding”; in series [3], “binds”.
